In publication PMC13006735 (Research, 2026):
Substitutions are numbered along the chain they refer to. Names and notes keep the numbering of the source.

B1:  (antibody, V domains shown)
VH: EVQLVESGGGLVKPGGSLRLSCAASGFTFSNAWMSWVRQAPGKGLEWVGRIKSKTDGGTIDYAAPVKGRFTISRDDSKNTVYLQMTSLKTEDTAVYYCTTYTEDMRYFDWLLRGGETFDYWGQGTLVTVSS
VL: DIRLTQSPSSLSASVGDRVTITCRASQYISTYLNWYQQKPGKAPKLLIYAAYNLQSGVPSRFSGSRFGTDFSLTISSLQPEDFATYHCQQSYSTPGRYTFGQGTKVEIK
notes: also called H27Q/S52Y/G66R-LC variant
B2:  (antibody, V domains shown)
VH: B1 VH
VL: B1 VL with Q27H, A50Y, L54R, R66G
notes: also called A50Y/S52Y/L54R-LC variant

Target: Sudan virus (SUDV) glycoprotein GP (Sudan ebolavirus, strain  for …, UniProt Q7T9D9)
Experiment: SPR
Settings: both partners purified

Row | Binder | Kd [pM]
1 | B1 | 349
2 | B2 | 248
